1 substance from patent US20120225079A1 can be followed below.

This test addresses cleaved human IgG (human IgG cleaved with the endopeptidases IdeE and IdeE2) (human). The test can be described thus: cell-based or functional assay.

For “recombinant mature EndoSe of Streptococcus equi subsp. equi (lacking the N-terminal signal sequence) (enzyme)”, the lowest EndoSe concentration at which activity was observed (SDS-PAGE) was determined as 2.6 µg/mL.
